Assay results: the DeepSol protein solubility set

Assay: soluble on expression in E. coli; label from the status in PepcDB or PDB records

Soluble on expression in E. coli, not soluble:
MGSDKIHHHHHHMQLPFIAVDYVISVGLCAASTNPSQDKRIKKITVLAVSGKGDLPISFIENQALLDEAAMLTCMAYVDLNPIRAQLADTPEQSDHTSIQLRIRAALKGEQPKNLLPFIVNERDNQPNGIAFLLSDYLELVDDTGRIIRSDKRGAISENSAKLLARLNIPHDNWLKLTTEFGKLFRGPVGTLQELTDYCEHLEKRRRHFAKCCLHFHSN
MGSDKIHHHHHHMQNQPPFIINSTYHREESKDIEFKSIASQHPVKKIVNHAEEYITGFLNALVEGQLYIGIDDAGKILGVKLSRSERDEIQKIIPNKLRNTDPIVSPSLYDIAFYNVLNEEQKDIEDLFVVNISVLGVDESQFYRTSSREYFLYKTTGGSTYLKTGTDCIKLNTTEIAQEIQKRKQKYLKQELDNIDDKLLQNPDNRSLLKEKANIAKLMGDIEKMDESYKRLINLNPNNSRTRVDYASAHKSIGDLEGALDILEDALKVDGDNLSILKTKGEILLGSDSSDKVKEAFQTYETALKLNPEDYTIITQIGIALRKLGKYKESIKVFNLALAKSPHYRAAKYEKRITYHKMFEGGIRI
MGSDKIHHHHHHMQPLAQTLDRIRTISEYLKPEFGIPADGNWVSVADDFVSGSPWLTSMIAAEQTRLRTTSAAIIGSTLLQNYQWPIIPTVVACYLFEQRVPDLAPANTRVHFTAEHQADALALLGGRFSALPDDPAAEHPDATIVPDRAALRDAMRTGIESHFAVVIEHICAALGCKPRGLWLNVADAVANALIWLAQQHAAFDPTQIEAEVEAVIRVPGSPLNNRQVGLIQLSYGENRQLFLRRATCCYWYKTEGGEYCLTCPHRTAEDRQARLLAYMAQKYTQQQQLVQEEVTA
MGSDKIHHHHHHMQQSQTIYLMGTVIDVFVDHEESEKILEEVHQRLITYEQRFSANDSTSELMAVNQQAGQKPVSVHPELYQLIALGKKHSCDPASHLNVTIGPLVQTWRIGFKDARVPSEEEIKACLKKINPEKIHLNPLKQTVFLEEEGMKLDLGALAKGYIADLLIAYLKEVHVTSALINLGGNIVTLGPSTHQNKKWRIGIRNPQESRETISLLVEVANQSVVTSGIYERSLTEAGRVYHHLLDPTTGYPLETEMASLTIISDASVDGEIWTTRLFGYPIPEALEILNQLDGIEGVIITQDQQILYSSGLADTLHIIHS
MGSDKIHHHHHHMQSGMYVSLSSQRALDKRLTTIADNMANVNTVGFRGTEVKFDEVVSRTGNDQNAKIAFVSQGNDYLNTQSGEMLQTGGTLDFAVKGDAWFSIDTPAGPALTRDGRFTMTSTGQLVSVRGYSVLDAGGGPIQLDPNGGEPHVGADGTINQNGRQISQIGLFTADISKGYLRTENSGVITTDRPQAVVDDATIGVMQGYVEQSNVNGISQMTQLIQVSRAFESISASMSQTENSMSETIKTLGGSK
MGSDKIHHHHHHMQSLHGNCLIAYARHKYILTMVNGEYRYFNGGDLVFADASQIRVDKCVENFVFVSRDTLSLFLPMLKEEALNLHAHKKVSSLLVHHCSRDIPVFQEVAQLSQNKNLRYAEMLRKRALIFALLSVFLEDEHFIPLLLNVLQPNMRTRVCTVINNNIAHEWTLARIASELLMSPSLLKKKLREEETSYSQLLTECRMQRALQLIVIHGFSIKRVAVSCGYHSVSYFIYVFRNYYGMTPTEYQERSAQRLSNRDSAASIVAQGNFYGTDRSAEGIRL
MGSDKIHHHHHHMQTNDKVLKAFHSVKDVGSERSIVELGWLEVVSVKPPKIVVRLNLPNFAIAQRGQMAVDIRESIKSLEDIEEVQIEIGDSSPSKESPIGQAGHGSQSQGLTAIPKVKNVIAISSGKGGVGKSTVAVNLACALSQKGFKVGLLDADIYGPNTPYMLGVSEITPEVSGSGAEQKIIPIETCGIGMVSMGLLIDQNQPVIWRGPMLNGIIRQFLYQASWGERDFLIVDLPPGTGDAQLSLAQAVPMAGVIIVTTPQNVSLQDSRRGLAMFKQMNIPVLGVIENMTYFIPPDQPQKSYKIFGSGGGSQLAKENNVPLLSQIPIETDTFSGTGKDLPVVHTSRDSITAKVFLELAGTLCNALSVKQ
MGSDKIHHHHHHMRANRIGYVYSNKRFAGELLEFNTLEGYEYSFTYAASYIASGLPQIGYKLPITHEPYRRNYLPPFFANLMSEGWVRRHQARIARLDQDDKFGLLLGNGAELIGPVSVFTEYRGDNISAAIEVIAVPMKSLKGYQIDFPRCEFNEVAMESLGGVSISGVQPKMFLTYAEGNPKTLTNAVGMGPYIVKPSPNDFPELAENEFMVMQLCKAVGFNVAEHHLVPFSCGQLAYVTARFDLDRETGRRHEFIEDLASALNVAPGNKSSDTLSYEKAIKEAYQLSGGHVQLLKDGFLQVLMAYIVGNNDLHLKNISLSRASDSNRASGYTPIYDMVSVAPYRQYDNSGELSIWLLESEVERGFSTSSYEHYGYYTGHDFITFAEAIGLGERAGKVLMNDLGKKVAKARDKVIANAPGSEQLKQIISERITARLSTLTRPALR
MGSDKIHHHHHHMRATLAAAARDLNAAARFGADTACREGYHPVMLNTIIHGTPTDQPPLLIAHGLYGSGRNWGVIAKRLADERQVIAVDMRNHGLSPKTQSHSYVDLAEDLAEVIAAHGGRMDVVGHSMGGKAAMMLALRHPEAVNRLVVADIAPVSYQHTQAHFITAMRSVDLARVTRRSDAQEQLAAAGVDAMLQSFFTQSLDVENKSWRLNLDTLEREMPHILSFPEVETHWDGTALFLTGAHSDYVLPEHRPQIKRLFPAARFAKIPGAGHWLHAEKPREFEATVRGFLNA
MGSDKIHHHHHHMRFLAYFGHLNIDVLISVDSIPREGSVNVKDLRPRFGGTAGNFAIVAQKFRIPFDLYSAVGMKTHREYLAMIESMGINTGHVEKFEDESGPICYIATDGKKQVSFMHQGAMEKWKPQLADEYEYVHFSTGPNYLDMAKSIRSKIIFDPSQEIHKYSKDELKKFHEISYMSIFNDHEYRVFREMTGLSSPKVTTIVTNGERGSSLFMDGKKYDFPAIPSSGDTVGAGDSFRAGLYLALYNRRSIEKGMIYGTIIAHHVIDDGIENFSLNMEDLERETENYRRMFTKRS
MGSDKIHHHHHHMRFPMMELDEKIYRFFENRGRDVTVEYLNLGLGYTAVTTSDGGIGIAYTCFGAKESCSFMNSYYDFEGRPAVELLEKIKSTHPLERTMALALVNALNYEYALSLPEDKENRALFESFGIGEKTRVAMVGYFAPIAGMLGKMGALLEVIDISKKIGHQADFYDRLENWAQVAFITSTSILNSTTEDILRHAGKGVKTVMLGPSTPMIGEVFSHLPVHMLAGTVPLEKEKVLKAIRHGFGTREIQRFSRKSYLALF
MGSDKIHHHHHHMRGEVKKIIEAIGDIFIGHEDVIRKVLAVALVNGNILFEDYPGLGKTLLAKAFAKILGLKFKRIQFTPDLLPADIIGTKVWKPEKGAFEVVKGPIFTNILLADEINRAPPKTQSALLEAMEERQVTIEGETFKLERPFFIIATQNPLELEGTYPLPEAQLDRFLVRLNIGYPRNEEDELEILKARLRWGKDDPTSDISPIISREDFIRMQEEVERGVIIHDDILRYIVRLVRRIREDERIEAGPSPRGGLALMKLAKANAFIEGRSYVIPDDVKYFAVEALAHRIVLKPEYSLERGIAEEIIREVLEEVPVPKDIRY
MGSDKIHHHHHHMRIAQVAPLWERVPPPAYGGIELVVGLLTDELVRRGHEVTLFASGDSISLAKLVSVHPRALRLDRTIKDYSVYETLNLASAYERAEEFDIIHSHIGHGALAYANLVTTPTVHTLHGIFTSDNEKMFSFGKKQPYVSISDAQREPRLGLNCIATVYNGIDVSSYNFHAQPEDPPYLAFLGRMSPEKGAHLAIEIAKQAGWCLKMAGKVDVVDVEYFEKEIKPHIDGEQIQYLGEANHAQKNALMGGAFATLFPITWREPFGLVMVESMASGTPVIAMNLGSTEEVISHGKTGFLCNNLQECISAVDRVIELDRYTCRQYVEDLFSVEQMTDGYEAVYQKIIAERFSRNGHSRNLIALSSDRI
MGSDKIHHHHHHMRIAVIGGGSSYTPELVKGLLDISEDVRIDEVIFYDIDEEKQKIVVDFVKRLVKDRFKVLISDTFEGAVVDAKYVIFQFRPGGLKGRENDEGIPLKYGLIGQETTGVGGFSAALRAFPIVEEYVDTVRKTSNATIVNFTNPSGHITEFVRNYLEYEKFIGLCNVPINFIREIAEMFSARLEDVFLKYYGLNHLSFIEKVFVKGEDVTEKVFENLKLKLSNIPDEDFPTWFYDSVRLIVNPYLRYYLMEKKMFKKISTHELRAREVMKIEKELFEKYRTAVEIPEELTKRGGSMYSTAAAHLIRDLETDEGKIHIVNTRNNGSIENLPDDYVLEIPCYVRSGRVHTLSQGKGDHFALSFIHAVKMYERLTIEAYLKRSKKLALKALLSHPLGPDVEDAKDLLEEILEANREYVKLG
MGSDKIHHHHHHMRINHNISALNAWRNISQTQYSMSKTLERLSSGLRINRAGDDAAGLAISEKMRGQIKGLNMAIKNAQDAISLIQTAEGALTEVHSILQRMRELAVQAASDTNTDVDREQIQKEIDQLREEIDRIARTTEFNTKKLLDGKLESFRSQVDAKVVTGGNINVQLGSVSSAAVEGTYVIEVGQFNGAETSELDVKITLFTAGGYSTTVVTITVGSATVGNINFTWDTDVLSINDFGGALPKNEVVDSAVVRVEAIYTSASQLIFQIGANEGHNMVAGIDDMSAAALGLTTVSLDVTTQDAAERAIMVVDAAIHRVSTARAALGAVQNRLEHTISNLGVAAENLTAAESRIRDADMAKEMMEFTKQQILLQSSMAMLAQSNTLPQNVLQLMR
MGSDKIHHHHHHMRIQQLHYIIKIVECGSMNEAAKQLFITQPSLSNAVKDLEMEMGITIFNRNPKGITLTKDGVEFLSYARQIIEQTSLLEDRYKNHNTGRELFSVSSQHYAFVVNAFVSLLKRTDMTRYELFLRETRTWEIIDDVKNFRSEIGVLFINDYNRDVLTKLFDDNHLTASPLFKAQPHIFVSKSNPLATKSLLSMDDLRDFPYLSYDQGIHNSFYFSEEMMSQMPHNKSIVVSDRATLFNLMIGLDGYTVASGILNSNLNGDQIVAIPLDVPDEIDIVFIKHEKANLSKMGERFIEYLLEEVTFD
MGSDKIHHHHHHMRITEMADRVSRTGIGKLAGASHQLHTLNTNERDNSAMAETSIEWTDATWNPVAGCTILTAGCTNCYAMRMAARLEAMGTEKYQGLTRKTGGRAKWTGKVVTDPKSLAIPATWSKPRRVFVNSMSDLFHVDVPADFIRQVWTVMEETPRHTYQILTKRPEVMASVLTRGEFPVLSNVWLGTSVEDSRVLSRLDDLRRVPASIRFVSLEPLIGSVAGANLTDINWAIVGGESGPGARDMDPRWVDEIEAMCRRSGTAFFFKQWGGRNKKATGRTLNGRTYDEMPAAI
MGSDKIHHHHHHMRKDISTNDKDINDLFLKVVDLVTQARERVATAINIAEVFTKFHIGQYIVEYEQKGETRAEYGKAVLKELSKRLTDRLGDGWSYSTLKNIRQFYIVFSKGLTSGCPKSSQKANQWLADYSKAEEHISEPTFALSWSHYLILMRVENPDARSFYEIECTQQQWSKRQLSRQVGSCLYERLALSRNKDEVMRLAKEGQTIGKPSDIIKNPITLEFLGLKPDAVYSESKLENAIINKMQQFLLELGKGFLFEARQKRFTFDEQHFFVDLVFYNRLLQCYVLIDLKIDKLTHQDLGQMQMYVNYYDRYVKQDFEKPTIGILLCKEKNDALVELTLPKDANIYASAYQLYLPNKALLQAKVKEWIEEFEENEELKKLEENE
